Laboratory results published in publication PMC9287160.
Numbering of substitutions follows the chain as printed. Names and notes keep the numbering of the source.

B1: nanobody hCD11bNb1 (His-tagged) N101A (protein)
chain: QVQLVETGGGLVQAGGSLRLSCAASGNINSFNAMGWFRQAPGKQRELVAAITFGGRTNYADSVKGRFTISRDNTKGSVYLQMNSLKPEDTAVYYCAASEANLLTGVWHYWGRGTQVTVSS
B2: nanobody hCD11bNb1 (His-tagged) N30A (protein)
chain: B1 chain with N29A, A100N
B3: nanobody hCD11bNb1 (His-tagged) F32A (protein)
chain: B1 chain with F31A, A100N
B4: nanobody hCD11bNb1 (His-tagged) I29A (protein)
chain: B1 chain with I28A, A100N
B5: nanobody hCD11bNb1 (His-tagged) F54A (protein)
chain: B1 chain with F53A, A100N

target: human integrin αMβ2 headpiece fragment, P11215;P05107; experiment: BLI competition assay; details: chain shown with the change; 20 nM αMβ2 HP preincubated with 10-fold molar excess of nanobody variant; immobilized biotinylated avi-tagged WT hCD11bNb1; signal is HP binding to the sensor …; parent: est. 0.31; read off a plot

Binder | response [nm]
B1 | 1.2
B2 | 0.98
B3 | 1.1
B4 | 0.45
B5 | 1.2
